Data on eight molecules can be found in paper PMC13147315.

Series [1] concerns the target T1, N_WT (nucleocapsid, Wuhan) (SARS-CoV-2 (Wuhan), UniProt P0DTC9 1-419). Kind of series: MST. The conditions noted are these: protein: recombinant, tags: 6xHis, chain copies: 2.
The target of series [2] is N_CTD (SARS-CoV-2 (Wuhan), UniProt P0DTC9 247-364). Kind of series: MST. As to conditions: protein: recombinant, tags: 6xHis, chain copies: 2.
The target in series [3] is T1, N_WT (nucleocapsid, Wuhan). Kind of series: EMSA; full binding at about 500 nM N. The conditions noted are these: protein: recombinant; tags: 6xHis; chain copies: 2.
Series [4] concerns the target T1, N_WT (nucleocapsid, Wuhan). Kind of series: EMSA; 15-500 nM N. The conditions noted are these: protein: recombinant; tags: 6xHis; chain copies: 2; label: Cy5 on RNA2; 3' overhang 11 nt on strand 1.
Setting [5] is: label: Cy5 (Methods EMSA: Cy3), blunt.

B1: dsRNA22 (dsRNA)
RNA 1: CAUAAUAAGAGGCUGGAUUUUUGGUA
RNA 2: UACCAAAAAUCCAGCCUCUUAUUAUG
The Kd is the free concentration of one partner at which half of the binding sites on the other are occupied at equilibrium, for simple one-to-one binding. For the molecule B1, the Kd was found to be 344 ± 132 nM in series [1] (label: Cy5, blunt) and 1840 ± 252 nM in series [2] (label: Cy5, blunt).

B2: dsRNA3 (dsRNA)
RNA 1: AACCAUAACAUGACCAUGAGGUGCAG
RNA 2: CUGCACCUCAUGGUCAUGUUAUGGUU
For the molecule B2, the values for the Kd in series [1] (setting [5]) and in series [2] (setting [5]) were 647 ± 151 nM and 2550 ± 567 nM, respectively.

B3: DNA of Fig. S2F (mixed)
DNA 1: TTTCGGCCTCATCAGGTCATCGCTTTAGTGAGGGTTAATAAA
DNA 2: TTATTAACCCTCACTAAA
Regarding B3, the binding result in series [3] is “binds”.

B4: dsRNA20 (dsRNA)
RNA 1: UUCGUCCGGGUGUGACCGAAAGGUAA
RNA 2: UUACCUUUCGGUCACACCCGGACGAA
Turning to B4, the Kd in series [1] (label: Cy5, blunt) turned out to be 398 ± 157 nM; in series [2] (label: Cy5, blunt) it was 3300 ± 394 nM.
As for AACCAUAACAUGACCAUGAGGUGCAG (ssRNA) [ssRNA3], the Kd in series [1] (label: Cy5 (Methods EMSA: Cy3)) amounted to 1260 ± 722 nM; in series [2] (label: Cy5 (Methods EMSA: Cy3)) it was 4290 ± 427 nM.

B5: hybridized RNA2 (RNA2-Cy5/RNA7) (dsRNA)
RNA 1: CUGCACCUCAUGGUCAUGUUAUGGUU
RNA 2: GACCAUGAGGUGCAG
Turning to B5, the binding result in series [4] is “binds”.
UUCGUCCGGGUGUGACCGAAAGGUAA (ssRNA) [ssRNA20]: the Kd in series [1] (label: Cy5) was 425 ± 186 nM; in series [2] (label: Cy5), 8540 ± 4510 nM.
With CAUAAUAAGAGGCUGGAUUUUUGGUA (ssRNA) [ssRNA22], the values for the Kd in series [1] (label: Cy5) and in series [2] (label: Cy5) were 291 ± 121 nM and 2730 ± 588 nM, respectively.
